Reference: IntAct's records for PubMed 22037600

B1: Endoribonuclease ZC3H12A (Mus musculus), Q5D1E7 (parent)
chain: MSDPCGTKPVQESNPTMSLWSLEDRHSSQGRPQPDQDPVAKEAPTSELQMKVDFFRKLGYSSSEIHSVLQKLGVQADTNTVLGELVKHGSATERECQALTAPSPQPPLVPRGGSTPKPSTLEPSLPEEDREGSDLRPVVIDGSNVAMSHGNKEVFSCRGILLAVNWFLERGHTDITVFVPSWRKEQPRPDVPITDQHILRELEKKKILVFTPSRRVGGKRVVCYDDRFIVKLAFESDGVVVSNDTYRDLQGERQEWKRFIEERLLMYSFVNDKFMPPDDPLGRHGPSLDNFLRKKPLPSEHRKQPCPYGKKCTYGIKCRFFHPERPSRPQRSVADELRANALLSPPRTPVKDKSSQRPSPASQSSSVSLEAEPGSLDGKKLGARSSPGPHREGSPQTCAPAGRSLPVSGGSFGPTEWLAHTQDSLPYTSQECLDSGIGSLESQMSELWGVRGGSPGESGPTRGPYAGYHSYGSKVPAAPSFSPFRPAMGAGHFSVPTDYVPPPPTYPSREYWSEPYPLPPPTPVLQEPQRPSPGAGGGPWGRVGDLAKERAGVYTKLCGVFPPHLVEAVMRRFPQLLDPQQLAAEILSYKSQHLSE
partner: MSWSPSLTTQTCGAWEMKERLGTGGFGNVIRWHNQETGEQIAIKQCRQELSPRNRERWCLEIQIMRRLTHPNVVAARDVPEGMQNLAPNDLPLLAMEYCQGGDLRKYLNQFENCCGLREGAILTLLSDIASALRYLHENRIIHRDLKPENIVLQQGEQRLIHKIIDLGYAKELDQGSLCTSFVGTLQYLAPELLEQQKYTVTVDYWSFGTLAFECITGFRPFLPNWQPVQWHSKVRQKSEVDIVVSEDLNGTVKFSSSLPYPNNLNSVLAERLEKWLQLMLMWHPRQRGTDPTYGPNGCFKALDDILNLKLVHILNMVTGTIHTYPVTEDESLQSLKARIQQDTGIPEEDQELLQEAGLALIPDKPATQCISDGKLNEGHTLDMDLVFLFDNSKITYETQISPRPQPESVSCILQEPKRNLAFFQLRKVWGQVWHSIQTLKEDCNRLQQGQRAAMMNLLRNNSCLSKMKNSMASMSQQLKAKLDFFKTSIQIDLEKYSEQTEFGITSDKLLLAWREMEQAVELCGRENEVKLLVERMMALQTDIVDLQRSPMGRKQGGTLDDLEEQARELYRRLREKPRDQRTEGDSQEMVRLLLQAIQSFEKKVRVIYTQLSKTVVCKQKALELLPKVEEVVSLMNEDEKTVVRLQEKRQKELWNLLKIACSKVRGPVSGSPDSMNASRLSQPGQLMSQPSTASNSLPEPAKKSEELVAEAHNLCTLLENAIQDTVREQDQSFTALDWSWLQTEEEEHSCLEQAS

Variants of: B1
Conditions: with ikkb_human IKBKB

Effect of a mutation on the interaction, decreasing interaction:
MSDPCGTKPVQESNPTMSLWSLEDRHSSQGRPQPDQDPVAKEAPTSELQMKVDFFRKLGYSSSEIHSVLQKLGVQADTNTVLGELVKHGSATERECQALTAPSPQPPLVPRGGSTPKPSTLEPSLPEEDREGSDLRPVVIDGSNVAMSHGNKEVFSCRGILLAVNWFLERGHTDITVFVPSWRKEQPRPDVPITDQHILRELEKKKILVFTPSRRVGGKRVVCYDDRFIVKLAFESDGVVVSNDTYRDLQGERQEWKRFIEERLLMYSFVNDKFMPPDDPLGRHGPSLDNFLRKKPLPSEHRKQPCPYGKKCTYGIKCRFFHPERPSRPQRSVADELRANALLSPPRTPVKDKSSQRPSPASQSSSVSLEAEPGSLDGKKLGARSSPGPHREGSPQTCAPAGRSLPVSGGSFGPTEWLAHTQDSLPYTSQECLDAGIGALESQMSELWGVRGGSPGESGPTRGPYAGYHSYGSKVPAAPSFSPFRPAMGAGHFSVPTDYVPPPPTYPSREYWSEPYPLPPPTPVLQEPQRPSPGAGGGPWGRVGDLAKERAGVYTKLCGVFPPHLVEAVMRRFPQLLDPQQLAAEILSYKSQHLSE [S435A;S439A]
MSDPCGTKPVQESNPTMSLWSLEDRHSSQGRPQPDQDPVAKEAPTSELQMKVDFFRKLGYSSSEIHSVLQKLGVQADTNTVLGELVKHGSATERECQALTAPSPQPPLVPRGGSTPKPSTLEPSLPEEDREGSDLRPVVIDGSNVAMSHGNKEVFSCRGILLAVNWFLERGHTDITVFVPSWRKEQPRPDVPITDQHILRELEKKKILVFTPSRRVGGKRVVCYDDRFIVKLAFESDGVVVSNDTYRDLQGERQEWKRFIEERLLMYSFVNDKFMPPDDPLGRHGPSLDNFLRKKPLPSEHRKQPCPYGKKCTYGIKCRFFHPERPSRPQRSVADELRANALLSPPRTPVKDKSSQRPSPASQSSSVSLEAEPGSLDGKKLGARSSPGPHREGSPQTCAPAGRSLPVSGGSFGPTEWLAHTQDSLPYTSQECLDSGIGALESQMSELWGVRGGSPGESGPTRGPYAGYHSYGSKVPAAPSFSPFRPAMGAGHFSVPTDYVPPPPTYPSREYWSEPYPLPPPTPVLQEPQRPSPGAGGGPWGRVGDLAKERAGVYTKLCGVFPPHLVEAVMRRFPQLLDPQQLAAEILSYKSQHLSE [S439A]
MSDPCGTKPVQESNPTMSLWSLEDRHSSQGRPQPDQDPVAKEAPTSELQMKVDFFRKLGYSSSEIHSVLQKLGVQADTNTVLGELVKHGSATERECQALTAPSPQPPLVPRGGSTPKPSTLEPSLPEEDREGSDLRPVVIDGSNVAMSHGNKEVFSCRGILLAVNWFLERGHTDITVFVPSWRKEQPRPDVPITDQHILRELEKKKILVFTPSRRVGGKRVVCYDDRFIVKLAFESDGVVVSNDTYRDLQGERQEWKRFIEERLLMYSFVNDKFMPPDDPLGRHGPSLDNFLRKKPLPSEHRKQPCPYGKKCTYGIKCRFFHPERPSRPQRSVADELRANALLSPPRTPVKDKSSQRPSPASQSSSVSLEAEPGSLDGKKLGARSSPGPHREGSPQTCAPAGRSLPVSGGSFGPTEWLAHTQDSLPYTSQECLDAGIGSLESQMSELWGVRGGSPGESGPTRGPYAGYHSYGSKVPAAPSFSPFRPAMGAGHFSVPTDYVPPPPTYPSREYWSEPYPLPPPTPVLQEPQRPSPGAGGGPWGRVGDLAKERAGVYTKLCGVFPPHLVEAVMRRFPQLLDPQQLAAEILSYKSQHLSE [S435A]
